The target in experiment [1] is T1, hGOAT (Homo sapiens, UniProt Q96T53).
T1 construct: 3xHA (C); FLAG (C); His6 (C); made in house; host or cells: Sf9 insect cells (baculovirus), crude membrane fraction
T1 sequence (Q96T53 1-435): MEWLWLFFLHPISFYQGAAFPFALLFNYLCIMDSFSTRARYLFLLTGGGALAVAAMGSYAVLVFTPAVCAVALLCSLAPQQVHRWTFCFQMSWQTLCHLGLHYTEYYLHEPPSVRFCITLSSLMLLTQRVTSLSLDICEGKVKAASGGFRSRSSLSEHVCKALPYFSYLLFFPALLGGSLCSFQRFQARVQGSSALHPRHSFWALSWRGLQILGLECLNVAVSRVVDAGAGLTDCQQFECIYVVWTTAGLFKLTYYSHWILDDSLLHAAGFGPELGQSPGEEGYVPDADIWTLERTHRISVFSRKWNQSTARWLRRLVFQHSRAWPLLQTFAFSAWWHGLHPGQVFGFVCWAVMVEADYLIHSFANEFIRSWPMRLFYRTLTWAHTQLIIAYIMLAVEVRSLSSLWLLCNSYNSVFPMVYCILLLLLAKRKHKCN
In words: hGOAT inhibition assay (octanoylation of GSSFLCAcDan by Sf9 membrane fraction expressing hGOAT, HPLC fluorescence). The settings on record: average of three independent trials ± one standard deviation; read-out: IC50 against hGOAT. The format is biochemical. As to the method: Assays were performed using previously reported protocols,[57],[58] as described in the Supporting Information. […]
hGOAT inhibition assays. Assays were performed using previously reported protocols.2-3 For each assay, membrane fraction from Sf9 cells expressing hGOAT was thawed on ice and homogenized by passage through an 18-gauge needle 10 times. Assays were performed with 50 µg of membrane protein, as determined by Bradford assay. Membrane fraction was pre-incubated with 1 µM methyl […]
arachidonyl fluorophosphonate (MAFP) and unlabeled peptide inhibitor or vehicle as indicated in 50 mM HEPES pH 7.0 for 30 minutes at room temperature prior to reaction initiation.4 All reactions were initiated by the addition of 1.5 µM GSSFLCAcDan and 300 µM octanoyl CoA.
Reactions were incubated for 30 minutes at room temperature under foil. All assays were stopped with the addition of 50 µL of 20% acetic acid in isopropanol, and solutions were clarified by protein precipitation with 16.7 µL of 20% trichloroacetic acid, followed by centrifugation (1,000 x g, 2 minutes). The supernatant was then analyzed using reverse-phase HPLC with fluorescence detection as previously described.2-3 Peak integrations for both substrate and product peaks were calculated using Chemstation for LC (Agilent Technologies). Data reported are the average of three independent determinations, with error reported as standard deviation.
For determination of IC50 values, the percent activity at each inhibitor concentration was calculated from HPLC integration data using equations 1 and 2: To determine an IC50 value for a given inhibitor, the plot of % activity versus [inhibitor] was fit to equation 3, with % activity0 denoting hGOAT activity in the presence of the vehicle alone. All reported IC50 values represent the average of a minimum of three independent trials.
(1) % activity = % peptide acylation in presence of inhibitor
% peptide acylation in absence of inhibitor
(2) % peptide octanoylation = Fluorescence of acylated peptide
Total peptide fluorescence (acylated and non-acylated)
(3) % activity = % activity * (1- [inhibitor] )

The target in experiment [2] is T2, GHSR (GHS-R1a) (Homo sapiens, UniProt Q92847).
T2 construct: expressed in transfected cells; host or cells: HEK 293 cells transfected with GHS-R1a (membrane suspension)
T2 sequence (Q92847 whole entry, species assumed): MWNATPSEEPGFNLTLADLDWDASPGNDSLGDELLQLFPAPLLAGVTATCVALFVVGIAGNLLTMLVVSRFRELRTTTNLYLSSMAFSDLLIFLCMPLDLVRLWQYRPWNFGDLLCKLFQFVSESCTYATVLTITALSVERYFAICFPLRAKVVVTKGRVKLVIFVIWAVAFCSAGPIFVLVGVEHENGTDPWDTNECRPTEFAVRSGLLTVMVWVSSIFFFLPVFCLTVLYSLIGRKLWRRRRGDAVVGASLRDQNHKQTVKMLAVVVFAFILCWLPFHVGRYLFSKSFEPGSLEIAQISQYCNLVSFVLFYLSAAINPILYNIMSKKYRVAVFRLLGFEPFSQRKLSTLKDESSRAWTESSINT
Details: method as in Charron et al.[22]. The note with it: ref Charron et al.[22]; read-out: IC50 against GHSR; cited from earlier work.

In experiment [3] the target is human ghrelin O-acyltransferase (hGOAT) of the hGOAT inhibition assays (human) (UniProt Q96T53).
Experiment [4] has as its target T3, human ghrelin O-acyltransferase (hGOAT) of the hGOAT inhibition assays (human, UniProt Q96T53 1-435).
T3 sequence (looked up): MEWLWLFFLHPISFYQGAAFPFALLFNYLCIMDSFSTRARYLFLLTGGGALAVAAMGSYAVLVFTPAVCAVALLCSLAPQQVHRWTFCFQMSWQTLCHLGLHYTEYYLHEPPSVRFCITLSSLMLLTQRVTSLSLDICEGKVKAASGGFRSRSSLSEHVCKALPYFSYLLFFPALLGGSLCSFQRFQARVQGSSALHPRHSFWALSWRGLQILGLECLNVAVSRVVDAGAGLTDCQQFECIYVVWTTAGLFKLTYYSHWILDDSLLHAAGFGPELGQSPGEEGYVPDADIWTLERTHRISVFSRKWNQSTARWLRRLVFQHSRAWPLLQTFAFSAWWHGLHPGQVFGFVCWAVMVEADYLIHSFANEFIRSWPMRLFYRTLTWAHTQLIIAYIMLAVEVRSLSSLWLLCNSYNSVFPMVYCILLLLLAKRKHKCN
In words: cell-based or functional assay.

Square brackets hold non-standard residues; d marks the D form. Peptide text beside a SMILES is read from it. * marks the point of attachment. X1 = CN1/C(=C/C=C/C=C/C2=[N+](CCCCCC(=O)*)c3ccc(S(=O)(=O)[O-])cc3C2(C)C)C(C)(C)c2cc(S(=O)(=O)O)ccc21; 1Nal = N[C@@H](Cc1cccc2ccccc12)C(=O)O; Dap = NC[C@H](N)C(=O)O

In the case of `CC(C)C[C@H](NC(=O)[C@H](Cc1cccc2ccccc12)NC(=O)[C@H](CN)NC(=O)[C@H](CO)NC(=O)CN)C(=O)N[C@@H](CO)C(=O)N1CCC[C@H]1C(=O)N[C@H](C(=O)N[C@@H](CCCCNC(=O)CCCCC[N+]1=C(/C=C/C=C/C=C2/N(C)c3ccc(S(=O)(=O)O)cc3C2(C)C)C(C)(C)c2cc(S(=O)(=O)[O-])ccc21)C(N)=O)[C@@H](C)O` [ligand 15, H-GS-Dap-Nal-1-LSPTK(SulfoCy5)-NH2] (H-GS[Dap][1Nal]LSPTK(X1)-NH2), the IC50 in experiment [1] amounted to 17 ± 2 nM.
With H-Aib-S-(6FN-Dap)-FLSPY-NH2 [ligand 6], in experiment [2], the IC50 was 9.2 nM.
Regarding H-Inp-S-(6FN-Dap)-FLSPY-NH2 [ligand 7], the 50% inhibitory concentration (IC50) in experiment [2] is 9.6 nM.
For “ligand 2, H-GS-(C8-Dap)-FLSPY-NH2 (peptide)”, the inhibition of hGOAT activity (IC50 against hGOAT) in experiment [3] is 64 nM.
Still for that read-out and setting: the result for “ligand 3, H-GS-(6FN-Dap)-FLSPY-NH2 (peptide)” reads greater than 100000 nM; that for “ligand 9, H-GS-(C8-Dap)-FLSPE-NH2 (peptide)”, 580 nM; that for “ligand 10, H-GS-(C8-Dap)-FLSPN-NH2 (peptide)”, 59 nM.
On the same count and under the same terms, as for “ligand 11, H-GS-(C8-Dap)-FLSPT-NH2 (peptide)”, the figure is 27 nM.

B1: ligand 13, H-GS-Dap-Nal-2-LSPT-NH2 (peptide)
chain: GSXXLSPT
HELM: PEPTIDE1{G.S.[NC[C@H](N[*:1])C(=O)[*:2]].[O=C([C@H](Cc1ccc2ccccc2c1)N[*:1])[*:2]].L.S.P.T.[am]}$$$$V2.0
SMILES: CC(C)C[C@H](NC(=O)[C@H](Cc1ccc2ccccc2c1)NC(=O)[C@H](CN)NC(=O)[C@H](CO)NC(=O)CN)C(=O)N[C@@H](CO)C(=O)N1CCC[C@H]1C(=O)N[C@H](C(N)=O)[C@@H](C)O
Turning to B1, the “inhibition of hGOAT activity (IC50 against hGOAT)” value in experiment [4] was determined as 16 nM.

B2: ligand 1, H-GS-Dap-FLSPY-NH2 (peptide)
chain: GSXFLSPY
HELM: PEPTIDE1{G.S.[NC[C@H](N[*:1])C(=O)[*:2]].F.L.S.P.Y.[am]}$$$$V2.0
SMILES: CC(C)C[C@H](NC(=O)[C@H](Cc1ccccc1)NC(=O)[C@H](CN)NC(=O)[C@H](CO)NC(=O)CN)C(=O)N[C@@H](CO)C(=O)N1CCC[C@H]1C(=O)N[C@@H](Cc1ccc(O)cc1)C(N)=O
As for B2, the “inhibition of hGOAT activity (IC50 against hGOAT)” value in experiment [4] is 104 nM.

Broadly, the IC50 is the concentration that gives 50% inhibition.
